Data as given in EP4755914A1 (CSPC Megalith Biopharmaceutical Co., Ltd., dated 2025).
Substitutions are numbered along the chain they refer to. Blank lines part the entries; values can stand above or below the binder they belong to.

What was measured:
[1] = biological target: T1, ROR1 antigen (UniProt Q01973 30-403, limits assumed); test: BLI (Octet RED96e), antibody on sensor, ROR1 antigen from 100 nM in 2-fold dilutions
T1 construct: construct not described

[2] = biological target: T2, ROR1 on stably transgenic ROR1-expressing cells MDA-MB-231-ROR1 (UniProt Q01973 30-937, limits assumed); test: flow cytometry on MDA-MB-231-ROR1 cells
T2 construct: whole, on cells
T2 sequence (Q01973 30-937 limits assumed): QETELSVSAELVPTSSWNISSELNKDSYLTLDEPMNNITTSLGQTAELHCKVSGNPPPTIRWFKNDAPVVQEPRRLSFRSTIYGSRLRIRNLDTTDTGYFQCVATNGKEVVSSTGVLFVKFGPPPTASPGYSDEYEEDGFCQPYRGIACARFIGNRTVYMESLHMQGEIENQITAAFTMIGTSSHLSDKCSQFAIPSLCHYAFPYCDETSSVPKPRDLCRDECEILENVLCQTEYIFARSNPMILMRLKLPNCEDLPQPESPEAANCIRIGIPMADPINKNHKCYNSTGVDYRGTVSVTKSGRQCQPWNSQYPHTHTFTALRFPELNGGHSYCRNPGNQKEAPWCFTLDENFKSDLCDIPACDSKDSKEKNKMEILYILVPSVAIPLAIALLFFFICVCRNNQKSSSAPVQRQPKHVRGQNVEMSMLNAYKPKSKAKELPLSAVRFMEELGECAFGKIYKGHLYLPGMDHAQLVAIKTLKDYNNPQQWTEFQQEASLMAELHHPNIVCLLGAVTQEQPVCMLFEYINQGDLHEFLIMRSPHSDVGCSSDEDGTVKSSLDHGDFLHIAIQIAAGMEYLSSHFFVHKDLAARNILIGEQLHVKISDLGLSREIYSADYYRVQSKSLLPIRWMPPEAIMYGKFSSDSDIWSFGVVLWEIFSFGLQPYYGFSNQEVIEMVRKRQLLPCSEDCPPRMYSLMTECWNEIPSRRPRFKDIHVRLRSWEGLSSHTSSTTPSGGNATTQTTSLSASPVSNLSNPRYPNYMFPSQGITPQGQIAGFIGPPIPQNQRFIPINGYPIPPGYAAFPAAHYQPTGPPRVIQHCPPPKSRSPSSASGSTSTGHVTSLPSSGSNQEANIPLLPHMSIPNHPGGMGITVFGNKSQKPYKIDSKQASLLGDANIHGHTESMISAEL

[3] = biological target: T3, ROR1 protein (ACROBiosystems, Cat# RO1-H5223) (UniProt Q01973 308-395); test: ELISA on ROR1 protein, anti-IgG secondary antibody, OD450
T3 construct: Bought protein
T3 sequence (Q01973 308-395 limits assumed): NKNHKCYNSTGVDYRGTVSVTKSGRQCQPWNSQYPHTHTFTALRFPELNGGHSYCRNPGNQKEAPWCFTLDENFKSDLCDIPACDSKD

T1 sequence (Q01973 30-403 limits assumed): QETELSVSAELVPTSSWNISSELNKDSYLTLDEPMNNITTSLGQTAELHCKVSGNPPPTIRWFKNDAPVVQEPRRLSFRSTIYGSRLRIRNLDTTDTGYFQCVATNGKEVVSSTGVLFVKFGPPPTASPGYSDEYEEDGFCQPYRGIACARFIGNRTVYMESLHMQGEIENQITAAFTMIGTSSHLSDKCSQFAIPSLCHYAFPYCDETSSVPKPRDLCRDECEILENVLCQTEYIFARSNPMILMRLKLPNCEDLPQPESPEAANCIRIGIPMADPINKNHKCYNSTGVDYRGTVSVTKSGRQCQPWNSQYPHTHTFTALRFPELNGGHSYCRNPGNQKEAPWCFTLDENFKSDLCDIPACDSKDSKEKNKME

Kd [1]: 32.4 nM | koff [1]: 0.0279 s⁻¹ | kon [1]: 859000 M⁻¹ s⁻¹ | EC50 [2]: 0.107 µg/mL | EC50 [3]: 0.0014 µg/mL
B1: humanized antibody hu17-H3L1 (antibody, human IgG1, kappa, L234A L235A, V domains shown)
VH: QVTLKESGPTLVKPTQTLTLTCSFSGFSLSTSGMGVAWIRQPPGKALEWLAHIWWDDDKRYNPSLKSRLTITKDTSKNQVVLTMTNMDPVDTATYYCARPQFITTVVAFYWYFDVWGQGTTVTVSS
VL: DILLTQSPSSLSVSVGDRVTITCRASENIYSNLAWYQQKPGKAPKLLVYAATNLADGVPSRFSGSGSGTQYTLTISSLQPEDFATYYCQHFWGTPWTFGGGTKLEIKR

Kd [1]: 22.7 nM | koff [1]: 0.0185 s⁻¹ | kon [1]: 814000 M⁻¹ s⁻¹ | EC50 [2]: 0.114 µg/mL | EC50 [3]: 0.00142 µg/mL
B2: humanized antibody hu17-H2L1 (antibody, human IgG1, kappa, L234A L235A, V domains shown)
VH: B1 VH with Q1E, S64A, M84I, M87V
VL: B1 VL

Kd [1]: 20 nM | koff [1]: 0.0147 s⁻¹ | kon [1]: 738000 M⁻¹ s⁻¹ | EC50 [2]: 0.101 µg/mL | EC50 [3]: 0.00116 µg/mL
B3: humanized antibody hu17-H4L1 (antibody, human IgG1, kappa, L234A L235A, V domains shown)
VH: B1 VH with S23T, N62G
VL: B1 VL

Kd [1]: 14.8 nM | koff [1]: 0.0105 s⁻¹ | kon [1]: 708000 M⁻¹ s⁻¹ | EC50 [2]: 0.0988 µg/mL | EC50 [3]: 0.00136 µg/mL
B4: murine antibody 17-F12-G8-A6 (antibody, V domains shown)
VH: EVTLKESGPGILQPSQTLSLTCSFSGFSLSTSGMGVAWIRQPSGKGLEWLAHIWWDDDKRYNPALKSRLTISKDTSSNQVFLKIASVDTADTATYYCARPQFITTVVAFYWYFDVWGAGTTVTVSS
VL: DILLTQSPASLSVSMGETVTITCRASENIYSNLAWYQQKQGKSPQLLVYAATNLADGVPSRFSGSGSGTQYSLKINSLQSEDFGSYYCQHFWGTPWTFGGGTKLEIK
